According to patent US20090092631A1 (TRIPEP, published 2009):
Where “and” joins values, the source holds several entries; their conditions need not be identical. Identical values can stand only once. Ends that are not written are not given here. * marks the point of attachment. Galα1‑3Galβ1‑O(CH2)3NH2 = OC[C@H]1O[C@H](O[C@H]2[C@@H](O)[C@@H](CO)O[C@@H](OCCCN*)[C@@H]2O)[C@H](O)[C@@H](O)[C@H]1O

Key:
[1] = target: T1, gp120 of HIV-1 IIIB virus (HIV-1 IIIB, UniProt P04578 33-856); assay: cell-based or functional assay
[2] = target: T1, gp120 of HIV-1 IIIB virus; assay: cell-based or functional assay; remark: listed apart in the source
[3] = target: T2, LAI gp120 molecule (PerkinElmer, Denmark) (HIV-1 LAI, UniProt P03377 33-516); assay: ELISA on coated LAI gp120, detection with 1:10 or 1:20 human serum
T2 construct: domain: gp120; also called gp120 from LAI virus

Binder	neutralization (inhibition of syncytia formation, U87 CD4+ CXCR4+ cells), peptide without serum [1] [%]	percentage of neutralization of the virus (plaque assay, U87 CD4 cells, HIV-1 IIIB); CD4 peptide alone 0.1 ug/ml [2]	percentage of neutralization of the virus (plaque assay, U87 CD4 cells, HIV-1 IIIB); CD4 peptide alone 1 ug/ml [2]	percentage of neutralization of the virus (plaque assay, U87 CD4 cells, HIV-1 IIIB); CD4 peptide alone 10 ug/ml [2]	lowest glycopeptide concentration at which binding was detected [3]	percentage of neutralization of the virus (plaque assay, U87 CD4 cells, HIV-1 IIIB); glycosylated Sp. exchanger 0.1 ug/ml & 1:10 dilution human serum [2]	percentage of neutralization of the virus (plaque assay, U87 CD4 cells, HIV-1 IIIB); glycosylated Sp. exchanger 0.1 ug/ml & 1:20 dilution human serum [2]	percentage of neutralization of the virus (plaque assay, U87 CD4 cells, HIV-1 IIIB); glycosylated Sp. exchanger 0.1 ug/ml, no serum [2]	percentage of neutralization of the virus (plaque assay, U87 CD4 cells, HIV-1 IIIB); glycosylated Sp. exchanger 1 ug/ml & 1:10 dilution human serum [2]	percentage of neutralization of the virus (plaque assay, U87 CD4 cells, HIV-1 IIIB); glycosylated Sp. exchanger 1 ug/ml & 1:20 dilution human serum [2]	percentage of neutralization of the virus (plaque assay, U87 CD4 cells, HIV-1 IIIB); glycosylated Sp. exchanger 1 ug/ml, no serum [2]	percentage of neutralization of the virus (plaque assay, U87 CD4 cells, HIV-1 IIIB); glycosylated Sp. exchanger 10 ug/ml & 1:10 dilution human serum [2]	percentage of neutralization of the virus (plaque assay, U87 CD4 cells, HIV-1 IIIB); glycosylated Sp. exchanger 10 ug/ml & 1:20 dilution human serum [2]	percentage of neutralization of the virus (plaque assay, U87 CD4 cells, HIV-1 IIIB); glycosylated Sp. exchanger 10 ug/ml, no serum [2]	decrease in the infectivity (RT activity day 11, H9 cells, HIV IIIB) at 0.01 µg/ml glycopeptide (approximately 5 nM) with 5 or 10% human serum [1] [%]	neutralization (RT activity day 11, H9 cells, HIV IIIB) at 1 µg/ml glycopeptide with 5 or 10% human serum [1] [%]
QGSFLTKGPSKLNDR [CD4 peptide alone, Seq. Id. No. 7 (non-glycosylated)]	< 40	< 0.3 fraction (0.3 equals 30%)	< 0.3 fraction (0.3 equals 30%)	< 0.3 fraction (0.3 equals 30%)												
TKGPSKLNDRADSRR [non-glycosylated CD4 peptide, Seq. Id. No. 8]	< 40															
DNSNQIKILGNQGSFL (not fully specified (residue 1), also called GP2; glycopeptide 2) [Gal-CD4-101]	< 40				~5 nM and 10 ng/ml	< 0.3 fraction (0.3 equals 30%)	< 0.3 fraction (0.3 equals 30%)	< 0.3 fraction (0.3 equals 30%)	0.39 fraction (0.3 equals 30%)	0.32 fraction (0.3 equals 30%)	< 0.3 fraction (0.3 equals 30%)	0.49 fraction (0.3 equals 30%)	0.429 fraction (0.3 equals 30%)	< 0.3 fraction (0.3 equals 30%)		
DTKGPSKLNDRADSRR (not fully specified (residue 1), also called glycopeptide 5) [Gal-CD4-104]	< 40				10 ng/ml and ~5 nM	0.778 fraction (0.3 equals 30%)	0.701 fraction (0.3 equals 30%)		0.821 fraction (0.3 equals 30%)	0.667 fraction (0.3 equals 30%)	0.548 fraction (0.3 equals 30%)	0.83 fraction (0.3 equals 30%)	0.642 fraction (0.3 equals 30%)	0.552 fraction (0.3 equals 30%)	> 50	90
D(Galα1‑3Galβ1‑O(CH2)3NH2)QFHWKNSNQIKILGN (also called GP1; glycopeptide 1) [Gal-CD4-100]	< 40				~5 nM and 10 ng/ml	0.48 fraction (0.3 equals 30%)	0.47 fraction (0.3 equals 30%)	< 0.3 fraction (0.3 equals 30%)	0.48 fraction (0.3 equals 30%)	0.47 fraction (0.3 equals 30%)	< 0.3 fraction (0.3 equals 30%)	0.55 fraction (0.3 equals 30%)	0.48 fraction (0.3 equals 30%)	< 0.3 fraction (0.3 equals 30%)		
DKILGNQGSFLTKGPS (not fully specified (residue 1), also called GP3; glycopeptide 3) [Gal-CD4-102]	< 40				~5 nM and 10 ng/ml	0.5 fraction (0.3 equals 30%)	< 0.3 fraction (0.3 equals 30%)	< 0.3 fraction (0.3 equals 30%)	0.42 fraction (0.3 equals 30%)	< 0.3 fraction (0.3 equals 30%)		0.6 fraction (0.3 equals 30%)	< 0.3 fraction (0.3 equals 30%)		> 50	90
DKLNDRADSRRSLWDQ (not fully specified (residue 1), also called GP6; glycopeptide 6) [Gal-CD4-105]	< 40				10 ng/ml and ~5 nM	0.76 fraction (0.3 equals 30%)	0.71 fraction (0.3 equals 30%)	< 0.3 fraction (0.3 equals 30%)	0.75 fraction (0.3 equals 30%)	0.75 fraction (0.3 equals 30%)	< 0.3 fraction (0.3 equals 30%)	0.78 fraction (0.3 equals 30%)	0.74 fraction (0.3 equals 30%)	< 0.3 fraction (0.3 equals 30%)		
KLNDRADSRRSLWDQ [non-glycosylated CD4 peptide, Seq. Id. No. 9]	< 40															
NSNQIKILGNQGSFL [CD4 peptide alone, Seq. Id. No. 5 (non-glycosylated)]	< 40	< 0.3 fraction (0.3 equals 30%)	< 0.3 fraction (0.3 equals 30%)	< 0.3 fraction (0.3 equals 30%)												
KILGNQGSFLTKGPS [CD4 peptide alone, Seq. Id. No. 6 (non-glycosylated)]	< 40	< 0.3 fraction (0.3 equals 30%)	< 0.3 fraction (0.3 equals 30%)	< 0.3 fraction (0.3 equals 30%)												
D(Galα1‑3Galβ1‑O(CH2)3NH2)QGSFLTKGPSKLNDR (also called GP4; glycopeptide 4) [Gal-CD4-103]	< 40				10 ng/ml and ~5 nM	0.439 fraction (0.3 equals 30%)	< 0.3 fraction (0.3 equals 30%)	< 0.3 fraction (0.3 equals 30%)	0.461 fraction (0.3 equals 30%)	< 0.3 fraction (0.3 equals 30%)	< 0.3 fraction (0.3 equals 30%)	0.454 fraction (0.3 equals 30%)	< 0.3 fraction (0.3 equals 30%)	< 0.3 fraction (0.3 equals 30%)	> 50	90
QFHWKNSNQIKILGN [CD4 peptide alone, Seq. Id. No. 4 (non-glycosylated)]	< 40	< 0.3 fraction (0.3 equals 30%)	< 0.3 fraction (0.3 equals 30%)	< 0.3 fraction (0.3 equals 30%)												
